Data published in article PMC5489419 (Molecular cell, 2017).

Target: WWP2 N-terminal fragment X (C2 domain, WW1 domain, WW2 domain) of TEV-cleaved WWP2 (human, UniProt O00308 1-395)
Assay: SEC

B1: WWP2 C-terminal fragment Y (WW3 domain, WW4 domain, HECT domain) of TEV-cleaved WWP2 (domain or fragment)
chain: not shown
binding result: binds
